These results are taken from publication PMC10164577, “CAF-1 deposits newly synthesized histones during DNA replication using distinct mechanisms on the leading and lagging strands”.

The Kd is a measure of binding affinity in units of concentration.

This data set addresses CAF-1 (Cac1-Cac2-Cac3) (Saccharomyces cerevisiae? (yeast), UniProt Q12495;Q04199;P13712 1-606;1-468;1-422). The experiment in a line: EMSA; EMSA: 25 mM Tris pH 7.5, 150 mM NaCl, 1 mM EDTA, 0.02% Tween-20, 1 mM TCEP, 50 nM DNA, 6% PAGE; SEC: 50 mM HEPES pH 7.5, 200 mM NaCl, 0.01% IGEPAL, 1 mM TCEP, 10 mM MgCl2, PCNA loading at 30 C with 3 mM ATP, CAF-1 at room temperature. The note with it: protein: recombinant, chain copies: 2;2;2, blunt. A general note: A gel shift assay detects complexes by their altered migration in electrophoresis.

B1: 53 bp DNA (dsDNA)
DNA 1: CGGTGCTAGAGCTGTCTACGAGCAATTGAGCGGCCTCGGCACCGGGATTCTGA
DNA 2: TCAGAATCCCGGTGCCGAGGCCGCTCAATTGCTCGTAGACAGCTCTAGCACCG
Turning to B1, the Kd stood at 180 nM.

B2: 33 bp DNA (dsDNA)
DNA 1: GCTGTCTACGAGCAATTGAGCGGCCTCGGCACC
DNA 2: GGTGCCGAGGCCGCTCAATTGCTCGTAGACAGC
Regarding B2, the Kd (label: 5' Alexa Fluor 647 on forward strand) came out at 330 nM.

B3: 43 bp DNA (dsDNA)
DNA 1: CTAGAGCTGTCTACGAGCAATTGAGCGGCCTCGGCACCGGGAT
DNA 2: ATCCCGGTGCCGAGGCCGCTCAATTGCTCGTAGACAGCTCTAG
For B3, the Kd turned out to be 230 nM.
